Experiment in all cases: cell-based or functional assay
For assay [1], the target named is SARS-CoV-2 Alpha spike protein (authentic virus) (SARS-CoV-2) (UniProt P0DTC2).
Assay [2] has as its target SARS-CoV-2 BA.1 spike protein (authentic virus) (SARS-CoV-2) (UniProt P0DTC2).
Assay [3] concerns the target SARS-CoV-2 BA.1.1 spike protein (authentic virus) (SARS-CoV-2) (UniProt P0DTC2).
Assay [4] addresses SARS-CoV-2 BA.2 spike protein (authentic virus) (SARS-CoV-2) (UniProt P0DTC2).
The target in assay [5] is SARS-CoV-2 BA.2.12.1 spike protein (authentic virus) (SARS-CoV-2) (UniProt P0DTC2).
The target of assay [6] is SARS-CoV-2 BA.5 spike protein (authentic virus) (SARS-CoV-2) (UniProt P0DTC2).

As for cilgavimab (AZD1061) (antibody), the Authentic Virus Neutralization IC50 in assay [1] was 0.006 µg/mL; in assay [2], 3.78 µg/mL; in assay [3], > 10 µg/mL; in assay [4] it was 0.021 µg/mL; in assay [5], 0.029 µg/mL; in assay [6] it was 0.131 µg/mL.

Values taken from US20250289871A1.
